Results from IntAct's records for PubMed 29039417.

B1: BBSome complex member BBS5 (Homo sapiens), Q8N3I7 (parent)
chain: MSVLDALWEDRDVRFDLSAQQMKTRPGEVLIDCLDSIEDTKGNNGDRGRLLVTNLRILWHSLALSRVNVSVGYNCILNITTRTANSKLRGQTEALYILTKCNSTRFEFIFTNLVPGSPRLFTSVMAVHRAYETSKMYRDFKLRSALIQNKQLRLLPQEHVYDKINGVWNLSSDQGNLGTFFITNVRIVWHANMNDSFNVSIPYLQIRSIKIRDSKFGLALVIESSQQSGGYVLGFKIDPVEKLQESVKEINSLHKVYSASPIFGVDYEMEEKPQPLEALTVEQIQDDVEIDSDGHTDAFVAYFADGNKQQDREPVFSEELGLAIEKLKDGFTLQGLWEVMS
partner: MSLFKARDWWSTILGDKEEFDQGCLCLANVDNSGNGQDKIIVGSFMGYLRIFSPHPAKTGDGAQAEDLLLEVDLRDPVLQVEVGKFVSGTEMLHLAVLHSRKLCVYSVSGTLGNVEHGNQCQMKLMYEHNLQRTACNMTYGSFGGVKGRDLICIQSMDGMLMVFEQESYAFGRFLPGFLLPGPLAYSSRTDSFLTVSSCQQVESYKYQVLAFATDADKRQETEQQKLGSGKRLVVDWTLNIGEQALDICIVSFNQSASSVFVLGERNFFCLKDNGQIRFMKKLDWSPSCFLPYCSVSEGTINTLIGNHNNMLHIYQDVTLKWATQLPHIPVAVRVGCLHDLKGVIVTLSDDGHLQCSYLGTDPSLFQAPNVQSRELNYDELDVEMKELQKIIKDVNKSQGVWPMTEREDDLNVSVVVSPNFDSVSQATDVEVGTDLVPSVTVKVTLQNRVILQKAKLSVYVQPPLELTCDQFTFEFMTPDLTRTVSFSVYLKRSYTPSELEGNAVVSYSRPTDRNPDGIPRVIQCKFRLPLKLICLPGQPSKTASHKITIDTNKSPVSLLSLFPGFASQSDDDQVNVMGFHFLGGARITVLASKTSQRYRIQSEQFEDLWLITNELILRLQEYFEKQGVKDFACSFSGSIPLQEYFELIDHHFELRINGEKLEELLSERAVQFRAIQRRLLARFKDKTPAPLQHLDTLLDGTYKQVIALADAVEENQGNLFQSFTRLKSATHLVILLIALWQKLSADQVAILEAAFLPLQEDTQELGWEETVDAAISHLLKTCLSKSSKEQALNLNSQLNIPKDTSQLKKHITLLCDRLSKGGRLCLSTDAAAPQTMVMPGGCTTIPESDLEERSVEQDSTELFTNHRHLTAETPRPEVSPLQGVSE

Variants of: B1
Conditions: with pthb1_human BBS9, Q3SYG4

effect of a mutation on the interaction | Variant
with no effect | Q227K
with no effect | S228A
with no effect | S228E
with no effect | S228K
with no effect | G229A
with no effect | G229E
with no effect | G229K
disrupting interaction strength | G229S
with no effect | G230A
with no effect | G230E
with no effect | G230K
disrupting interaction strength | Y231A
with no effect | Y231E
with no effect | Y231K
with no effect | V232A
with no effect | V232E
with no effect | V232K
disrupting interaction strength | L233A
with no effect | L233E
with no effect | L233K
disrupting interaction strength | G234A
with no effect | G234E
with no effect | G234K

effect of a mutation on the interaction | Variant
with no effect | F235A
with no effect | F235E
disrupting interaction strength | F235K
with no effect | K236A
disrupting interaction strength | K236E
with no effect | I237A
with no effect | I237E
with no effect | I237K
with no effect | D238A
with no effect | D238E
with no effect | D238K
disrupting interaction strength | D238N
with no effect | P239A
with no effect | P239E
with no effect | P239K
with no effect | V240A
with no effect | V240E
with no effect | V240K
with no effect | E241A
with no effect | E241K
with no effect | K242A
with no effect | K242E
with no effect | L243A

effect of a mutation on the interaction | Variant
with no effect | L243E
with no effect | L243K
with no effect | Q244A
with no effect | Q244E
with no effect | Q244K
with no effect | E245A
with no effect | E245K
with no effect | S246A
with no effect | S246E
with no effect | S246K
with no effect | V247A
with no effect | V247E
disrupting interaction strength | V247I
with no effect | V247K
with no effect | K248A
with no effect | K248E
with no effect | E249A
with no effect | E249K
with no effect | I250A
with no effect | I250E
with no effect | I250K
with no effect | N251A
with no effect | N251E

effect of a mutation on the interaction | Variant
with no effect | N251K
with no effect | S252A
with no effect | S252E
with no effect | S252K
with no effect | L253A
with no effect | L253E
with no effect | L253K
with no effect | H254A
with no effect | H254E
with no effect | H254K
with no effect | K255A
with no effect | K255E
with no effect | V256A
with no effect | V256E
with no effect | V256K
with no effect | Y257A
with no effect | Y257E
disrupting interaction strength | Y257K
with no effect | S258A
with no effect | S258E
with no effect | S258K
with no effect | A259E
